The values below come from patent US20230416343A1.

Read-outs that look alike come from different tables or passages of the source.

Common to all, as to conditions: remark: other sources report otherwise
For test [1], the target named is T1, Recombinant SARS-CoV2 RBD having a carboxy terminal his tag (SARS-CoV-2), P0DTC2.
Test [2] has as its target T1, Recombinant SARS-CoV2 RBD having a …. The source holds these as a separate data set.
In test [3] the target is T2, SARS-CoV-2 spike protein expressed on HEK293 cells (SARS-CoV-2), P0DTC2.
Test [4] addresses T3, SARS-CoV-2 D614G mutant spike protein expressed on HEK293 cells (SARS-CoV-2), P0DTC2.
The target of test [5] is T2, SARS-CoV-2 spike protein expressed on …. As to the kind of experiment: flow cytometry on HEK293 cells expressing the spike; table 'spike'. On the technique in general: A flow cytometer gives signals particle by particle.
The target in test [6] is SARS-CoV-2 variant spike protein E484K on HEK293 cells (SARS-CoV-2), P0DTC2.
For test [7], the target named is SARS-CoV-2 variant spike protein deletion mutant del 243-244 on HEK293 cells (SARS-CoV-2), P0DTC2.
Test [8] addresses SARS-CoV-2 variant spike protein S494P on HEK293 cells (SARS-CoV-2), P0DTC2.
Test [9] concerns the target T3, SARS-CoV-2 D614G mutant spike protein …. The source holds these as a separate data set.
The target of test [10] is SARS-CoV-2 variant spike protein F490S on HEK293 cells (SARS-CoV-2), P0DTC2.

B1: antibody S1D2 (antibody, V domains shown)
VH: EVQLVESGGGLIQPGGSLRLSCAASGFTVSSNYMSWVRQAPGKGLEWVSIIYPGGSTNYADSVKGRFTISRDNSRNTLYLQMNSLRAEDTAVYYCARELGYYGMDVWGQGTTVTVSS
VL: DIQMTQSPSSVSASVGDRVTITCRASQGISTWLVWYQQKPGKAPNLLIYGASSLQSGVPSRFSGSGSGTDFTLTISSLQPEDFATYYCQQANSFPYTFGQGTKLEIK
For orientation: Kd means the free concentration of one partner at which half of the binding sites on the other are occupied at equilibrium, for simple one-to-one binding. B1: the Kd in test [1] turned out to be 46.2 nM; in [2], 46 nM.

B2: S1D2LALA antibody (STI-1499) (antibody, V domains shown)
VH: B1 VH
VL: B1 VL
What is called EC50 is the midpoint of the concentration-response curve. A high value points to a less potent agent. Take B2: the EC50 in test [3] worked out at 0.1 µg/mL; in test [4], 0.13 µg/mL; in test [6], 140 µg/mL; in test [7] it was 180 µg/mL; in [8], 194 µg/mL; in [9], 70 µg/mL. For the same molecule, in test [10], the EC50 came out at 38 µg/mL. Further, the Maxi % in test [4] and in [5] was 100% throughout.
